Marks after values point to notes of the source that are not given here.
What was measured:
[1] = system: colon cancer cell line SW480; experiment: Killing of tumor cells by stimulated T cells, CytoTox 96 non-radioactive cytotoxicity assay; assay type: cell-based, human; details: effector-target ratio 30:1
Protocol: (§1) Three protein concentrations (20 μg/mL, 40 μg/mL, 80 μg/mL) of TAT-SHP2-N-SH2 fusion protein were selected to stimulate human T lymphocytes and the killing effect on tumor cells MDA-MB-231 and SW480, respectively at an effector-target ratio of 30:1 was detected by CytoTox 96 non-radioactive cytotoxicity assay.

[2] = system: breast cancer cell line MDA-MB-231; experiment: as above; assay type: cell-based, human; details: effector-target ratio 30:1
Protocol: as §1

lung cancer cells H460 = experiment: as above; details: T cells stimulated with 40 μg/mL for 4 days, effector-target ratio 20:1
Protocol: CytoTox 96 non-radioactive cytotoxicity assay was used to detect the killing effect of L1, L2, D1 and D2 polypeptides (40 μg/mL) on lung cancer cells H460 after stimulating human T lymphocytes for 4 days, respectively.

T lymphocytes [3] = experiment: T lymphocyte proliferation detected by CFSE; assay type: cell-based; details: 80 μg/mL, 3 days, control group 62.83%
Protocol: Compared with the control group, p>0.05 has no statistical significance.
To test whether recombinant TAT-N-SH2 fusion protein and L1 (TAT-SHP2-C-SH2) polypeptide can enhance the proliferation of T lymphocytes, we used 80 μg/mL TAT-SHP2-N-SH2 fusion protein and TAT-SHP2-C-SH2 polypeptide to stimulate T lymphocytes for 3 days, respectively, the proliferation of T lymphocytes was detected by CFSE.

MC38 colon cancer [4] = experiment: MC38 colon cancer in immunodeficient nude mice; assay type: in vivo
Description: Tumor weight of mice after 30 d dissection; b. Tumor size; c. Tumor growth curve; Unpaired t-test, compared with control group, NS: no statistical difference.
In order to exclude the direct inhibitory effect of recombinant TAT-N-SH2 fusion protein and L1 (TAT-SHP2-C-SH2) polypeptide on tumors, we selected immunodeficient nude mice to inoculate MC38 colon cancer tumors, and started administration 14 days after tumor formation, 4 days to measure the tumor volume, after 30 days, the mice were sacrificed for dissection, and the tumor weight was measured.

T lymphocytes [5] = experiment: T lymphocyte apoptosis, Annexin V-FITC/PI flow cytometry; assay type: cell-based; details: 80 μg/mL, 3 days, PD-L1 coated plate, compared with control group
Protocol: The resuspended cells are added to different groups to treat untreated groups SHP2-NC, SHP2-N-SH2 (80 μg/mL), TAT-SHP2-C-SH2 polypeptide (80 μg/mL), and then continues to culture on EASY-T stimulated plates for 3 d (50 ng of PD-L1 antibody is added 3 hours before adding the cell mixture to coat a 24-well plate at 37° C.), and the cells are collected, detection by flow cytometry after FITC and PI staining; e According to the results of flow cytometry, the proportion of apoptotic cells is counted, compared with the control group, *p<0.05 or **p<0.01.
T lymphocytes were stimulated with recombinant TAT-N-SH2 fusion protein and L1 polypeptide for 3 days and the apoptosis of T lymphocytes in different treatment groups was detected by flow cytometry. […] FIG. 13e, according to the results of flow cytometry, the proportion of apoptotic cells was counted, compared with the control group, *p<0.05 or **p<0.01.

PD-L1-KO-EMT6 = experiment: PD-L1 knockout EMT-6 breast cancer xenografts in BALB/c mice; assay type: in vivo
Description: Tumor weight of mice after 23 d dissection; b. Tumor size; c. Tumor growth curve; Unpaired t-test, compared with control group, *P<0.05, **P<0.01, ***P<0.001.
Recombinant TAT-N-SH2 fusion protein and L1 (TAT-SHP2-C-SH2) polypeptide target the ITIM motif of inhibitory receptors. […] To this end, we constructed a breast cancer EMT-6 cell line stably knocked out PD-L1 (PD-L1-KO-EMT6), inoculated into the mouse mammary fat pad, and the recombinant TAT-N-SH2 fusion protein (N5) and TAT-SHP2-C-SH2 polypeptide (C5) were administered by intraperitoneal injection at 5 μg/mouse, respectively and at the same time, a dose of 50 μg/mouse αPD-1 antibody (αPD-1) was used as the control drug.

EMT-6 breast cancer = EMT-6 breast cancer in immune-deficient nude mice; assay type: in vivo; details: groups C5/N5, once every other day, 8 doses
Description: Tumor weight of mice after 21 d dissection; b. Tumor size; c. Tumor growth curve; NS: no statistical difference.
At the same time, we selected immune-deficient nude mice to inoculate EMT-6 breast cancer tumors. After 5 days of tumor formation, they were randomly divided into three groups with 6 mice in each group. Start the administration, the administration dose is the same as above, administered once every other day for a total of 8 doses, 4 days to measure tumor size, the growth curve was drawn, and the mice were sacrificed to measure the body weight on day 21.

ERK, AKT and JNK = experiment: Phosphorylation of ERK, AKT and JNK in T lymphocytes, Western-blot; assay type: cell-based; details: T lymphocytes stimulated 3 days, compared with untreated group
Protocol: TAT-SHP2-N-SH2 fusion protein treatment group; c. TAT-SHP2 C-SH2 polypeptide treatment group; b, d. According to Western-blot results, with β-actin as an internal reference, grayscale analysis of the phosphorylation expression of JNK, AKT and ERK proteins mediated by T lymphocytes is performed. Unpaired t-test, compared with negative control, **p<0.01, NS has no statistical difference.
The T lymphocytes stimulated by recombinant TAT-N-SH2 fusion protein and L1 (TAT-SHP2-C-SH2) polypeptide for 3 days were collected to detect the changes in the phosphorylation levels of ERK, AKT and JNK molecules.

MC38 colon cancer [6] = experiment: MC38 colon cancer mouse subcutaneous tumor-bearing model; assay type: in vivo, mice
Description: A subcutaneous tumor model of MC38 colon cancer mice was established.

EMT breast cancer = EMT breast cancer mouse subcutaneous tumor-bearing model; assay type: in vivo, mice
Protocol: Tumor weight of mice in different administration groups after 21 d dissection; b. Tumor size; Unpaired t-test, compared with control group, *p<0.05, **p<0.01, ***p<0.001.
We further evaluated the effects of TAT-SHP2SHP2-N-SH2 fusion protein and TAT-SHP2SHP2-C-SH2 polypeptide on tumor growth in mice by establishing a subcutaneous tumor-bearing model of EMT breast cancer mice. We used TAT-SHP2SHP2-C-SH2 polypeptide at 5 μg/mouse (C5), 10 μg/mouse (C10), 15 μg/mouse (C15) and 2 μg/mouse (N2), 5 μg/mouse (N5), 10 μg/mouse (N10), 15 μg/mouse (N15) of TAT-SHP2SHP2-N-SH2 fusion protein were administered by intraperitoneal injection and at the same time, the dose of 50 μg/mouse αPD-1 antibody (αPD-1) was used as the positive control drug.

IL-2 = experiment: Cytokine IL-2 secreted by T lymphocytes; assay type: cell-based; details: T lymphocytes stimulated 3 days, compared with control group
Description: The T lymphocytes stimulated by recombinant TAT-N-SH2 fusion protein and L1 polypeptide for 3 days were collected to detect the level of cytokine IL-2 secreted.

SW480 = experiment: Direct killing of tumor cells, zenCell owl live cell imaging; assay type: cell-based; details: 20, 40, 80 μg/mL, no T cells
Protocol: (§2) In order to detect whether the recombinant TAT-N-SH2 fusion protein and L1 polypeptide have direct killing effect on tumor cells, we co-cultured different concentrations (20 μg/mL, 40 μg/mL, 80 μg/mL) of recombinant TAT-N-SH2 fusion protein and L1 polypeptide with tumor cells MDA-MB-231 and SW480, and applied zenCell owl live cell dynamic imaging analysis system to observe its effect on tumor cells in real time.

MDA-MB-231 = experiment: as above; assay type: cell-based; details: 20, 40, 80 μg/mL, no T cells
Protocol: as §2

[7] = T cells stimulated with 20 μg/ml
[8] = T cells stimulated with 40 μg/ml
[9] = T cells stimulated with 80 μg/ml
[10] = Table 4, 1.25 μg/mouse intraperitoneal, 8 administrations
[11] = Table 4, 2.5 μg/mouse intraperitoneal, 8 administrations
[12] = Table 4, 5 μg/mouse intraperitoneal, 8 administrations
[13] = Table 4, 10 μg/mouse intraperitoneal, 8 administrations
[14] = Table 5, 5 μg/mouse intraperitoneal

## CC(C)C[C@H](NC(=O)[C@@H](NC(=O)[C@H](Cc1ccccc1)NC(=O)[C@H](CC(=O)O)NC(=O)CNC(=O)[C@@H]1CCCN1C(=O)[C@H](Cc1c[nH]cn1)NC(=O)[C@H](CO)NC(=O)[C@H](CCC(N)=O)NC(=O)[C@H](CO)NC(=O)[C@H](CCC(=O)O)NC(=O)[C@H](CCCNC(=N)N)NC(=O)[C@@H](NC(=O)[C@@H]1CCCN1C(=O)[C@@H]1CCCN1C(=O)[C@H](CCCNC(=N)N)NC(=O)[C@H](CCCNC(=N)N)NC(=O)[C@H](CCCNC(=N)N)NC(=O)[C@H](CCC(N)=O)NC(=O)[C@H](CCCNC(=N)N)NC(=O)[C@H](CCCNC(=N)N)NC(=O)[C@H](CCCCN)NC(=O)[C@H](CCCCN)NC(=O)[C@H](CCCNC(=N)N)NC(=O)CNC(=O)[C@@H](N)Cc1ccc(O)cc1)C(C)C)C(C)C)C(=O)O [L1, YGRKKRRQRRR-PP-VRESQSHPGDFVL]
[1]; [7]
  Cytotoxicity (%) SW480: 20.24 ± 8.943^ns %
[1]; [8]
  Cytotoxicity (%) SW480: 31.38 ± 3.779 %
[1]; [9]
  Cytotoxicity (%) SW480: 40.19 ± 8.373 %
[2]; [7]
  Cytotoxicity (%) MDA-MB-231: 5.933 ± 3.955^ns %
[2]; [8]
  Cytotoxicity (%) MDA-MB-231: 20.55 ± 1.157 %
[2]; [9]
  Cytotoxicity (%) MDA-MB-231: 34.8 ± 7.424 %
Lung cancer cells H460
  Cytotoxicity (%): 33.23 ± 2.32 %

## CC(C)C[C@@H](NC(=O)[C@H](NC(=O)[C@@H](Cc1ccccc1)NC(=O)[C@@H](CC(=O)O)NC(=O)CNC(=O)[C@H]1CCCN1C(=O)[C@@H](Cc1c[nH]cn1)NC(=O)[C@@H](CO)NC(=O)[C@@H](CCC(N)=O)NC(=O)[C@@H](CO)NC(=O)[C@@H](CCC(=O)O)NC(=O)[C@@H](CCCNC(=N)N)NC(=O)[C@H](NC(=O)[C@H]1CCCN1C(=O)[C@H]1CCCN1C(=O)[C@@H](CCCNC(=N)N)NC(=O)[C@@H](CCCNC(=N)N)NC(=O)[C@@H](CCCNC(=N)N)NC(=O)[C@@H](CCC(N)=O)NC(=O)[C@@H](CCCNC(=N)N)NC(=O)[C@@H](CCCNC(=N)N)NC(=O)[C@@H](CCCCN)NC(=O)[C@@H](CCCCN)NC(=O)[C@@H](CCCNC(=N)N)NC(=O)CNC(=O)[C@H](N)Cc1ccc(O)cc1)C(C)C)C(C)C)C(=O)O [D1]
Lung cancer cells H460
  Cytotoxicity (%): 39.43 ± 1.31 %

B1: TAT-SHP2-N-SH2 fusion protein: TAT penetrating peptide connected to N-terminal SH2 domain of SHP2 through glycine and serine (TAT-Gly-Ser-N-SH2); SEQ ID NO.:4 (protein)
chain: YGRKKRRQRRRGSRWFHPNITGVEAENLLLTRGVDGSFLARPSKSNPGDFTLSVRRNGAVTHIKIQNTGDYYDLYGGEKFATLAELVQYYMEHHGQLKEKNGDVIELKYPLN
modifications: the fusion protein
T lymphocytes [3]
  proliferation rate of T lymphocytes: 61.05%
MC38 colon cancer [4]; groups C5/N5
  Tumor inhibition rate %: 9.9%
MC38 colon cancer [4]; groups C5/N5, sacrificed after 30 days
  Tumor weight (g): 0.25 ± 0.06^ns g
[1]; [7]
  Cytotoxicity (%) SW480: 23.51 ± 1.432 %
[1]; [8]
  Cytotoxicity (%) SW480: 44.42 ± 5.78 %
[1]; [9]
  Cytotoxicity (%) SW480: 50.64 ± 2.068 %
[2]; [7]
  Cytotoxicity (%) MDA-MB-231: 15.11 ± 6.483^ns %
[2]; [8]
  Cytotoxicity (%) MDA-MB-231: 12.55 ± 3.037 %
[2]; [9]
  Cytotoxicity (%) MDA-MB-231: 21.78 ± 3.021 %
T lymphocytes [5]
  apoptosis of T lymphocytes: significantly decreased
PD-L1-KO-EMT6; 5 μg/mouse intraperitoneal
  Tumor inhibition rate %: 60.5%
PD-L1-KO-EMT6; 5 μg/mouse intraperitoneal, dissection after 23 d
  Tumor weight (g): 0.34 ± 0.20** g
PD-L1-KO-EMT6; N5 and C5 5 μg/mouse, αPD-1 antibody 50 μg/mouse
  effect on growth of PD-L1-KO-EMT6 tumors: significantly inhibit the growth of PD-L1-KO-EMT6 tumors
EMT-6 breast cancer
  Tumor inhibition rate %: 8.3%
EMT-6 breast cancer; day 21
  Tumor weight (g): 0.82 ± 0.13^ns g
ERK, AKT and JNK
  phosphorylation levels of ERK, AKT and JNK: the expression levels of p-ERK and p-AKT in the TAT-SHP2-N-SH2 fusion protein stimulation group have the most obvious changes
MC38 colon cancer [6]; [10]
  Tumor inhibition rate %: 55.3%
  Tumor weight: 0.36 ± 0.11 g
MC38 colon cancer [6]; [11]
  Tumor inhibition rate %: 53.5%
  Tumor weight: 0.38 ± 0.11 g
MC38 colon cancer [6]; [12]
  Tumor inhibition rate %: 80.9%
  Tumor weight: 0.16 ± 0.03 g
MC38 colon cancer [6]; [13]
  Tumor inhibition rate %: 57.8%
  Tumor weight: 0.34 ± 0.08 g
MC38 colon cancer [6]; [14]
  Tumor inhibition rate %: 77.1%
  Tumor weight: 0.26 ± 0.07 g
EMT breast cancer; 2 μg/mouse intraperitoneal
  Tumor inhibition rate %: 54.9%
  Tumor weight (g): 0.56 ± 0.11* g
EMT breast cancer; 5 μg/mouse intraperitoneal
  Tumor inhibition rate %: 70.3%
EMT breast cancer; 5 μg/mouse intraperitoneal, dissection after 21 d
  Tumor weight (g): 0.37 ± 0.10** g
EMT breast cancer; 10 μg/mouse intraperitoneal
  Tumor inhibition rate %: 63%
  Tumor weight (g): 0.46 ± 0.12** g
EMT breast cancer; 15 μg/mouse intraperitoneal
  Tumor inhibition rate %: 47.9%
  Tumor weight (g): 0.64 ± 0.15* g
IL-2
  level of IL-2 secreted by T lymphocytes: significantly increased
SW480
  direct toxic effect on tumor cells: no direct toxic effect
MDA-MB-231
  direct toxic effect on tumor cells: no direct toxic effect

Reference: patent US12558403B2, “Anti-tumor fusion protein, preparation method therefor and application thereof” (GUANGDONG TAIHE MEDICINE SCIENCE & TECHNOLOGY CO., LTD, priority 2020, dated 2026)
